The results in this text go back to patent US20260242419A1, “A CYCLIC PEPTIDE FOR TRAPPING INTERLEUKIN-1 BETA” (Merck Sharp & Dohme LLC, priority 2023, published 2026).

Starred links: 1 amine or outer side, 2 acyl side, 3 side chain; linkers in the order of their positions; H or OH if unused. Non-standard residues stand in square brackets, D forms with d. dProc3Bn4Pyrim2NMe = (2R,3S)-3-[[4-[2-(methylamino)pyrimidin-5-yl]phenyl]methyl]pyrrolidine-2-carboxylic acid, CNc1ncc(-c2ccc(C[C@H]3CCN([*:1])[C@H]3C(=O)[*:2])cc2)cn1; dProc3Bn4Pyrim = (2R,3S)-3-[(4-pyrimidin-5-ylphenyl)methyl]pyrrolidine-2-carboxylic acid, O=C([C@H]1[C@@H](Cc2ccc(-c3cncnc3)cc2)CCN1[*:1])[*:2]; TyrEtNAc = (2S)-3-[4-(2-acetamidoethoxy)phenyl]-2-amino-propanoic acid, CC(=O)NCCOc1ccc(C[C@H](N[*:1])C(=O)[*:2])cc1; dPro(4R-(4-pyridylmethyl)) = O=C(O)[C@H]1C[C@@H](Cc2ccncc2)CN1; dPro(3S-(4-Br-benzyl)) = O=C(O)[C@@H]1NCC[C@@H]1Cc1ccc(Br)cc1; Trp(βS-Me,4-F) = C[C@@H](c1c[nH]c2cccc(F)c12)[C@H](N)C(=O)O; Bip(4'-COOH) = N[C@@H](Cc1ccc(-c2ccc(C(=O)O)cc2)cc1)C(=O)O; Ala(1-bicyclo(1.1.1)pentyl) = N[C@@H](CC12CC(C1)C2)C(=O)O; dPro(4R-Bzl(4-F)) = O=C(O)[C@H]1C[C@@H](Cc2ccc(F)cc2)CN1; Ala(pyrimidin-5-yl) = N[C@@H](Cc1cncnc1)C(=O)O; Phe(4-COOH) = N[C@@H](Cc1ccc(C(=O)O)cc1)C(=O)O; Pro(cis-4-F) = O=C(O)[C@@H]1C[C@H](F)CN1; 4Pal = N[C@@H](Cc1ccncc1)C(=O)O; Cit = NC(=O)NCCC[C@H](N)C(=O)O; Dab = NCC[C@H](N)C(=O)O; Dap = NC[C@H](N)C(=O)O; Aib = CC(C)(N)C(=O)O

Sequences and labels used below:
B1: SEQ ID NO: 52 (peptide)
peptide: cyclo([Bip(4'-COOH)][4Pal][Phe(4-COOH)]G[Pro(cis-4-F)][Trp(βS-Me,4-F)][Aib]EW[Aib][Cit]Q[Dab]G[dPro(4R-Bzl(4-F))])
SMILES: C[C@@H](c1c[nH]c2cccc(F)c12)[C@@H]1NC(=O)[C@@H]2C[C@H](F)CN2C(=O)CNC(=O)[C@H](Cc2ccc(C(=O)O)cc2)NC(=O)[C@H](Cc2ccncc2)NC(=O)[C@H](Cc2ccc(-c3ccc(C(=O)O)cc3)cc2)NC(=O)[C@H]2C[C@@H](Cc3ccc(F)cc3)CN2C(=O)CNC(=O)[C@H](CCN)NC(=O)[C@H](CCC(N)=O)NC(=O)[C@H](CCCNC(N)=O)NC(=O)C(C)(C)NC(=O)[C@H](Cc2c[nH]c3ccccc23)NC(=O)[C@H](CCC(=O)O)NC(=O)C(C)(C)NC1=O
B2: SEQ ID NO: 54 (peptide)
peptide: cyclo([Bip(4'-COOH)][4Pal][Phe(4-COOH)]G[Pro(cis-4-F)][Trp(βS-Me,4-F)][Aib]EW[Aib][Ala(pyrimidin-5-yl)]Q[Dab]G[dProc3Bn4Pyrim2NMe])
SMILES: CNc1ncc(-c2ccc(C[C@H]3CCN4C(=O)CNC(=O)[C@H](CCN)NC(=O)[C@H](CCC(N)=O)NC(=O)[C@H](Cc5cncnc5)NC(=O)C(C)(C)NC(=O)[C@H](Cc5c[nH]c6ccccc56)NC(=O)[C@H](CCC(=O)O)NC(=O)C(C)(C)NC(=O)[C@H]([C@@H](C)c5c[nH]c6cccc(F)c56)NC(=O)[C@@H]5C[C@H](F)CN5C(=O)CNC(=O)[C@H](Cc5ccc(C(=O)O)cc5)NC(=O)[C@H](Cc5ccncc5)NC(=O)[C@H](Cc5ccc(-c6ccc(C(=O)O)cc6)cc5)NC(=O)[C@@H]34)cc2)cn1
B3: SEQ ID NO: 43 (peptide)
peptide: cyclo([Bip(4'-COOH)][Ala(1-bicyclo(1.1.1)pentyl)][Phe(4-COOH)]G[Pro(cis-4-F)][Trp(βS-Me,4-F)][Aib]EW[Aib][Ala(pyrimidin-5-yl)]Q[Dab]G[dPro(4R-(4-pyridylmethyl))])
SMILES: C[C@@H](c1c[nH]c2cccc(F)c12)[C@@H]1NC(=O)[C@@H]2C[C@H](F)CN2C(=O)CNC(=O)[C@H](Cc2ccc(C(=O)O)cc2)NC(=O)[C@H](CC23CC(C2)C3)NC(=O)[C@H](Cc2ccc(-c3ccc(C(=O)O)cc3)cc2)NC(=O)[C@H]2C[C@@H](Cc3ccncc3)CN2C(=O)CNC(=O)[C@H](CCN)NC(=O)[C@H](CCC(N)=O)NC(=O)[C@H](Cc2cncnc2)NC(=O)C(C)(C)NC(=O)[C@H](Cc2c[nH]c3ccccc23)NC(=O)[C@H](CCC(=O)O)NC(=O)C(C)(C)NC1=O
B4: SEQ ID NO: 5 (peptide)
peptide: cyclo([Bip(4'-COOH)][4Pal][Phe(4-COOH)]G[Pro(cis-4-F)][Trp(βS-Me,4-F)][Aib]SW[Aib]SQ[Dab]G[dPro(4R-Bzl(4-F))])
SMILES: C[C@@H](c1c[nH]c2cccc(F)c12)[C@@H]1NC(=O)[C@@H]2C[C@H](F)CN2C(=O)CNC(=O)[C@H](Cc2ccc(C(=O)O)cc2)NC(=O)[C@H](Cc2ccncc2)NC(=O)[C@H](Cc2ccc(-c3ccc(C(=O)O)cc3)cc2)NC(=O)[C@H]2C[C@@H](Cc3ccc(F)cc3)CN2C(=O)CNC(=O)[C@H](CCN)NC(=O)[C@H](CCC(N)=O)NC(=O)[C@H](CO)NC(=O)C(C)(C)NC(=O)[C@H](Cc2c[nH]c3ccccc23)NC(=O)[C@H](CO)NC(=O)C(C)(C)NC1=O
B5: SEQ ID NO: 45 (peptide)
peptide: cyclo([Bip(4'-COOH)][Ala(1-bicyclo(1.1.1)pentyl)][Phe(4-COOH)]G[Pro(cis-4-F)][Trp(βS-Me,4-F)][Aib]EW[Aib][4Pal]Q[Dab]G[dPro(4R-(4-pyridylmethyl))])
SMILES: C[C@@H](c1c[nH]c2cccc(F)c12)[C@@H]1NC(=O)[C@@H]2C[C@H](F)CN2C(=O)CNC(=O)[C@H](Cc2ccc(C(=O)O)cc2)NC(=O)[C@H](CC23CC(C2)C3)NC(=O)[C@H](Cc2ccc(-c3ccc(C(=O)O)cc3)cc2)NC(=O)[C@H]2C[C@@H](Cc3ccncc3)CN2C(=O)CNC(=O)[C@H](CCN)NC(=O)[C@H](CCC(N)=O)NC(=O)[C@H](Cc2ccncc2)NC(=O)C(C)(C)NC(=O)[C@H](Cc2c[nH]c3ccccc23)NC(=O)[C@H](CCC(=O)O)NC(=O)C(C)(C)NC1=O
B6: SEQ ID NO: 50 (peptide)
peptide: cyclo([TyrEtNAc][Ala(1-bicyclo(1.1.1)pentyl)][Phe(4-COOH)]G[Pro(cis-4-F)][Trp(βS-Me,4-F)][Aib]EW[Aib][Ala(pyrimidin-5-yl)]Q[Dab]G[dPro(4R-(4-pyridylmethyl))])
SMILES: CC(=O)NCCOc1ccc(C[C@@H]2NC(=O)[C@H]3C[C@@H](Cc4ccncc4)CN3C(=O)CNC(=O)[C@H](CCN)NC(=O)[C@H](CCC(N)=O)NC(=O)[C@H](Cc3cncnc3)NC(=O)C(C)(C)NC(=O)[C@H](Cc3c[nH]c4ccccc34)NC(=O)[C@H](CCC(=O)O)NC(=O)C(C)(C)NC(=O)[C@H]([C@@H](C)c3c[nH]c4cccc(F)c34)NC(=O)[C@@H]3C[C@H](F)CN3C(=O)CNC(=O)[C@H](Cc3ccc(C(=O)O)cc3)NC(=O)[C@H](CC34CC(C3)C4)NC2=O)cc1
B7: SEQ ID NO: 47 (peptide)
peptide: cyclo([Bip(4'-COOH)][4Pal][Phe(4-COOH)]G[Pro(cis-4-F)][Trp(βS-Me,4-F)][Aib]EW[Aib][4Pal]Q[Dap]G[dPro(4R-(4-pyridylmethyl))])
SMILES: C[C@@H](c1c[nH]c2cccc(F)c12)[C@@H]1NC(=O)[C@@H]2C[C@H](F)CN2C(=O)CNC(=O)[C@H](Cc2ccc(C(=O)O)cc2)NC(=O)[C@H](Cc2ccncc2)NC(=O)[C@H](Cc2ccc(-c3ccc(C(=O)O)cc3)cc2)NC(=O)[C@H]2C[C@@H](Cc3ccncc3)CN2C(=O)CNC(=O)[C@H](CN)NC(=O)[C@H](CCC(N)=O)NC(=O)[C@H](Cc2ccncc2)NC(=O)C(C)(C)NC(=O)[C@H](Cc2c[nH]c3ccccc23)NC(=O)[C@H](CCC(=O)O)NC(=O)C(C)(C)NC1=O
B8: SEQ ID NO: 49 (peptide)
peptide: cyclo([TyrEtNAc][4Pal][Phe(4-COOH)]G[Pro(cis-4-F)][Trp(βS-Me,4-F)][Aib]EW[Aib][Ala(pyrimidin-5-yl)]Q[Dab]G[dPro(4R-(4-pyridylmethyl))])
SMILES: CC(=O)NCCOc1ccc(C[C@@H]2NC(=O)[C@H]3C[C@@H](Cc4ccncc4)CN3C(=O)CNC(=O)[C@H](CCN)NC(=O)[C@H](CCC(N)=O)NC(=O)[C@H](Cc3cncnc3)NC(=O)C(C)(C)NC(=O)[C@H](Cc3c[nH]c4ccccc34)NC(=O)[C@H](CCC(=O)O)NC(=O)C(C)(C)NC(=O)[C@H]([C@@H](C)c3c[nH]c4cccc(F)c34)NC(=O)[C@@H]3C[C@H](F)CN3C(=O)CNC(=O)[C@H](Cc3ccc(C(=O)O)cc3)NC(=O)[C@H](Cc3ccncc3)NC2=O)cc1
B9: SEQ ID NO: 53 (peptide)
peptide: cyclo([Bip(4'-COOH)][4Pal][Phe(4-COOH)]G[Pro(cis-4-F)][Trp(βS-Me,4-F)][Aib]EW[Aib][Ala(pyrimidin-5-yl)]Q[Dab]G[dProc3Bn4Pyrim])
SMILES: C[C@@H](c1c[nH]c2cccc(F)c12)[C@@H]1NC(=O)[C@@H]2C[C@H](F)CN2C(=O)CNC(=O)[C@H](Cc2ccc(C(=O)O)cc2)NC(=O)[C@H](Cc2ccncc2)NC(=O)[C@H](Cc2ccc(-c3ccc(C(=O)O)cc3)cc2)NC(=O)[C@H]2[C@@H](Cc3ccc(-c4cncnc4)cc3)CCN2C(=O)CNC(=O)[C@H](CCN)NC(=O)[C@H](CCC(N)=O)NC(=O)[C@H](Cc2cncnc2)NC(=O)C(C)(C)NC(=O)[C@H](Cc2c[nH]c3ccccc23)NC(=O)[C@H](CCC(=O)O)NC(=O)C(C)(C)NC1=O
B10: SEQ ID NO: 46 (peptide)
peptide: cyclo([Bip(4'-COOH)][Ala(1-bicyclo(1.1.1)pentyl)][Phe(4-COOH)]G[Pro(cis-4-F)][Trp(βS-Me,4-F)][Aib]EW[Aib][Ala(pyrimidin-5-yl)]Q[Dap]G[dPro(4R-(4-pyridylmethyl))])
SMILES: C[C@@H](c1c[nH]c2cccc(F)c12)[C@@H]1NC(=O)[C@@H]2C[C@H](F)CN2C(=O)CNC(=O)[C@H](Cc2ccc(C(=O)O)cc2)NC(=O)[C@H](CC23CC(C2)C3)NC(=O)[C@H](Cc2ccc(-c3ccc(C(=O)O)cc3)cc2)NC(=O)[C@H]2C[C@@H](Cc3ccncc3)CN2C(=O)CNC(=O)[C@H](CN)NC(=O)[C@H](CCC(N)=O)NC(=O)[C@H](Cc2cncnc2)NC(=O)C(C)(C)NC(=O)[C@H](Cc2c[nH]c3ccccc23)NC(=O)[C@H](CCC(=O)O)NC(=O)C(C)(C)NC1=O

This assay deals with Recombinant human IL-1β (BioLegend 579404) (human, UniProt P01584 117-269). The assay can be described thus: cell-based or functional assay.
For B1, the “MRC5 IC50” value came out at 0.021 nM.

B2: the “MRC5 IC50” value came to 0.021 nM.

With B3, the “MRC5 IC50” value was 0.026 nM.

In the case of B4, the “MRC5 IC50” value amounted to 0.039 nM.

B5: the “MRC5 IC50” value amounted to 0.027 nM.

Take B6: the “MRC5 IC50” value is 0.044 nM.

Consider B7, for which the “MRC5 IC50” value was 0.029 nM.

Take cyclo([Bip(4'-COOH)][Ala(1-bicyclo(1.1.1)pentyl)][Phe(4-COOH)]G[Pro(cis-4-F)][Trp(βS-Me,4-F)][Aib]EW[Aib][4Pal]Q[Dap]G[dPro(4R-(4-pyridylmethyl))]) [SEQ ID NO: 48]: the “MRC5 IC50” value is 0.027 nM.

In the case of B8, the “MRC5 IC50” value was determined as 0.047 nM.

As for cyclo([Bip(4'-COOH)][4Pal][Phe(4-COOH)]G[Pro(cis-4-F)][Trp(βS-Me,4-F)][Aib]EW[Aib][Ala(pyrimidin-5-yl)]Q[Dab]G[dPro(3S-(4-Br-benzyl))]) [SEQ ID NO: 51], the “MRC5 IC50” value is 0.014 nM.

Consider B9, for which the “MRC5 IC50” value stood at 0.018 nM.

In the case of cyclo([Bip(4'-COOH)][Ala(1-bicyclo(1.1.1)pentyl)][Phe(4-COOH)]G[Pro(cis-4-F)][Trp(βS-Me,4-F)][Aib]SW[Aib][Ala(pyrimidin-5-yl)]Q[Dab]G[dPro(4R-(4-pyridylmethyl))]) [SEQ ID NO: 44], the “MRC5 IC50” value amounted to 0.021 nM.

As for B10, the “MRC5 IC50” value worked out at 0.034 nM.
